Test results from publication PMC4597128.

Biological target: Helicobacter pylori HP0231 (DsbK) (Helicobacter pylori)
Assay: SEC; purified His6-tagged proteins on a calibrated ENrich SEC70 column (Bio-Rad), absorbance at 280 nm; calibrated with Gel Filtration Standard (Bio-Rad)

**Q.** “Helicobacter pylori HP0231 (DsbK) (enzyme)” was tested. Which stoichiometry N did it give?
**A.** 2
